Reference: the supplement of paper PMC10567573
± gives the standard deviation.

Experiment: protein stability index of a GFP-peptide fusion (GPS, HEK-293T) (PSI 1-6); higher = more stable
[1] = treatment: DMSO, c terminus: a fixed tail appended
[2] = treatment: MLN4924 1 uM, 8 h, c terminus: a fixed tail appended
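Note: 24-mer peptide tiles fused after GFP, lentivirally expressed, FACS-sorted into six equal bins by GFP/DsRed ratio, decoded by Illumina sequencing, PSI is the read-weighted mean bin number.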

Sequence	protein stability index [1]	protein stability index [2]	protein stability index (treatment: DMSO, c terminus: native)	protein stability index (treatment: MLN4924 1 uM, 8 h, c terminus: native)
FNGDFVDRGKDSVEILMILFAFML [PPEF2]	2.62 ± 0.54	2.15 ± 0.27	–	–
FPDGDDEFDSPHEDIVFETDHILE [STX11]	5.19 ± 0.25	5.29 ± 0.16	–	–
FQAKKIPIVSSLADPLDTPPDSKE [PDZK1]	4.16 ± 0.3	4.39 ± 0.63	–	–
FQCNQCGASFTQKGNLLRHIKLHS [IKZF1]	4.56 ± 0.16	4.4 ± 0.76	–	–
FRGDDGIFDDNFIEERKQGLEQFI [SNX3]	3.28 ± 0.18	3.76 ± 0.66	–	–
FSEIISSISDVKFSHSGRYIMTRD [PPP2R2B]	2.52 ± 0.28	2.53 ± 0.29	–	–
FSGWISALVVPKGNTAVSVLMLLV [SCAMP3]	2.87 ± 0.39	2.73 ± 0.46	–	–
FSHTLVSLSLFGCTNIFYEEENPG [ZER1]	2.65 ± 0.12	2.29 ± 0.029	–	–
FSTSKWNHLLHHFVIGHLKGAPAS [FADS1]	2.65 ± 0.67	2.17 ± 0.38	–	–
FSVLEGEKNNHRAKDLRAPPEQGK [SOAT1]	5.08 ± 0.26	4.92 ± 0.18	–	–
FTFEGFSRLRFLNLGRMIDWVPVE [ZER1]	2.76 ± 0.63	2.81 ± 0.43	–	–
FTTSILRHWCMKHDELLAEHIKSL [INTS3]	2.22 ± 0.2	2.17 ± 0.18	–	–
GAVAPPVSGDLTKEDIDLIDILWR [NFE2L1]	3.16 ± 0.17	3.67 ± 0.53	–	–
GAVLALVAIFIMSLNKRHSSGDGN [MFSD9]	3 ± 0.21	3.43 ± 0.59	–	–
GAYDFPSPEWDTVTPEAKNLINQM [CAMK2B]	3.76 ± 0.25	3.85 ± 0.25	–	–
GCLAEAVSVIQSIPIFNETGRFSF [HACD3]	2.91 ± 0.66	2.6 ± 0.77	–	–
GDTPIRKKEELLFDDGDDIMATLG [FBF1]	4.35 ± 0.18	4.47 ± 0.29	–	–
GEAQPGLPQEDPSTSQGCAQPQGA [FEM1A]	5.36 ± 0.21	5.51 ± 0.13	–	–
GEQEHSQQKEEEEEMAVVPQGLFR [CHGA]	5.45 ± 0.43	5.55 ± 0.28	–	–
GFGVLRLDADAAQRVVYLEGCGPP [TSPAN10]	2.88 ± 0.33	2.65 ± 0.13	–	–
GGKKDKARYIDTHNRVSKEDEDIY [PLK2]	4.37 ± 0.27	4.73 ± 0.4	–	–
GGLEHVPSSSSIHNGDMEKILLDA [BNIP3L]	4.85 ± 0.23	4.68 ± 0.61	–	–
GGLFVGKEGPMIHSGSVVGAGLPQ [CLCN6]	3.39 ± 0.16	3.46 ± 0.44	–	–

Sequence	protein stability index [1]	protein stability index [2]	protein stability index (treatment: DMSO, c terminus: native)	protein stability index (treatment: MLN4924 1 uM, 8 h, c terminus: native)
GGLNTETNEKALEAVFGKYGRIVE [RBMX]	3.59 ± 0.26	3.22 ± 0.47	–	–
GGMMPPGPGIPPLMPGMPPGMPPP [ZNF207]	3.89 ± 0.43	4.09 ± 0.15	–	–
GGPGRQTTSPNVLWPTPGHLSPLV [ESR2]	2.97 ± 0.22	3.15 ± 0.048	–	–
GGQCCRRQDSPSPDFYKQSSPNLQ [PCDHGC5]	3.77 ± 0.33	3.78 ± 0.23	–	–
GGSGPAGLRASTSDGILRGNGTGY [RHOBTB2]	4.31 ± 0.27	4.24 ± 0.39	–	–
GIELMEVDPIGHVYIFATCLGLSY [MAGEA6]	3.02 ± 0.66	2.92 ± 0.41	–	–
GKEQSRRDDLEALGHMFMYFLRGS [CSNK1G3]	2.38 ± 0.34	2.29 ± 0.45	–	–
GKLKCDICGIICIGPNVLMVHKRS [IKZF1]	2.91 ± 1.6	2.26 ± 0.75	–	–
GKNLYTNEYVAIKLEPIKSRAPQL [CSNK1G1]	2.35 ± 0.032	2.58 ± 0.13	–	–
GKSPVNMVTVAMVAGQCEFAHILH [ZNF649]	2.63 ± 0.63	2.34 ± 0.62	–	–
GLHLTDPSQRLVQNCLWTLRNLSD [CTNNB1]	2.29 ± 0.31	2.45 ± 0.27	–	–
GLLALAIGLWGLAVKGSLGSDLGG [TSPAN10]	4.49 ± 0.53	3.4 ± 0.37	–	–
GMDFHRFYFENALSKSNKPIHTII [CAMK2D]	2.94 ± 1.8	2.06 ± 1.1	–	–
GNFDWVGNDFTQNAGTGLVINQAD [PLD5]	4.7 ± 0.69	4.47 ± 0.27	–	–
GNQLISNNIKFKKSSILTRAGEQR [CLCN6]	3.78 ± 0.13	4.06 ± 0.44	–	–
GQQDLFRVLKAYTLYRPEEGYCQA [TBC1D10A]	2.03 ± 0.37	2.16 ± 0.31	–	–
GQQDQVKLHDFFSYLMDHFIPSSH [PPEF2]	2.81 ± 0.57	2.89 ± 0.71	–	–
GQRGAQGAGRRRRAGGPPRPMSEP [SMAD6]	4.96 ± 0.21	5.08 ± 0.42	–	–
GRDELGGGRRPGTSPALLQGTAEE [CDKN1A]	5.4 ± 0.34	5.41 ± 0.24	–	–
GSANDYKDTLGKGSSLSAPSKKTS [KRT71]	5.33 ± 0.22	5.3 ± 0.22	–	–
GSDYVNANYIDGYRKQNAYIATQG [PTPRD]	3.51 ± 1.2	3.46 ± 0.28	–	–
GSINLLESPQLATLAEDVTAALAK [MAP2]	4.12 ± 0.066	4.05 ± 0.27	–	–
GSLCAIAGVLTIALPVPVIVSNFN [KCNA4]	3.33 ± 0.42	3.13 ± 0.36	–	–

Sequence	protein stability index [1]	protein stability index [2]	protein stability index (treatment: DMSO, c terminus: native)	protein stability index (treatment: MLN4924 1 uM, 8 h, c terminus: native)
GSPVNQQPKKNNVMARTRLVVPNK [FAM219A]	4.17 ± 0.1	4.33 ± 0.31	–	–
GSTMLIEAAKGGHTSVVCYLLDYP [ANKRD17]	2.59 ± 0.38	2.55 ± 0.56	–	–
GTTPQISPSTLIGSLRTLELGSES [HDAC6]	4.52 ± 0.27	–	–	–
GVAGGLNRNQGLNRLMLAVRDMMA [TCF25]	3.12 ± 0.38	3.02 ± 0.36	–	–
GVCIRRCTVLRDARIRSHSWLESC [GMPPB]	2.31 ± 0.35	2.15 ± 0.12	–	–
GVKRKADTTTPTTSAITASRSESP [BRD3]	5.22 ± 0.15	5.19 ± 0.16	–	–
GVLHKHQRALHKYSLMKRQMMSAT [SNX8]	2.4 ± 0.18	2.58 ± 0.24	–	–
GWGEVMLMADKVLRWERAWFPPAI [ARL6IP1]	2.87 ± 0.48	3.04 ± 0.78	–	–
GYEVAAAQGPNKPGYLVGRNNANG [CPN1]	4.2 ± 0.14	4.32 ± 0.21	–	–
GYPLPKLDMNFSLENREEPWVKEL [ZNF449]	3.53 ± 0.12	3.7 ± 0.2	–	–
HARYRVIHFIAVAVCLLGVGTMVG [SLC35F2]	2.42 ± 0.42	2.28 ± 0.15	–	–
HDGHLYLGSFRSPFLCRLSLQAV [APMAP]	–	–	2.82 ± 0.33	3.31 ± 0.55
HDGKNQPSKTYPAFLEPDETFIVP [SPSB1]	4.28 ± 0.19	4.25 ± 0.39	–	–
HGGSLLGKKYNWSCDDLMGGGGLH [GFOD1]	2.73 ± 0.28	2.95 ± 0.27	–	–
HHWDHARGNPELARLRPGLAVLGA [HAGHL]	3.1 ± 0.34	3.08 ± 0.45	–	–
HICTNYNSVCSKFRKEIKSKSADN [RHOBTB1]	3.37 ± 0.21	3.54 ± 0.15	–	–
HIPSQEVPGTQVGQGGKLWDPSVQ [ZNF263]	4.35 ± 0.12	4.44 ± 0.24	–	–
HISNQKMPTGPPEDRLSLKFLPSS [DRICH1]	3.21 ± 0.14	3.44 ± 0.12	–	–
HISSCKLGPQVSLDPMKNVTCENG [LOXL2]	4.15 ± 0.39	4.14 ± 0.49	–	–
HISTFINELDSGFRLLNLKNDSLR [TSN]	2.23 ± 0.13	2.1 ± 0.25	–	–
HLLIPELGACVAPGGNLIVELARY [DNAAF3]	2.28 ± 0.085	2.25 ± 0.24	–	–
HMNRLQSQRAMLLQGTESLNRATQ [VTI1B]	4.12 ± 0.12	3.895 ± 0.03	–	–
IAANLENKATNTDHLTTVLYLQLA [C8orf76]	2.36 ± 0.28	2.17 ± 0.25	–	–

Sequence	protein stability index [1]	protein stability index [2]	protein stability index (treatment: DMSO, c terminus: native)	protein stability index (treatment: MLN4924 1 uM, 8 h, c terminus: native)
IARVHGTFGAAACSIGFAVRYLNA [POP5]	2.22 ± 0.26	2.25 ± 0.56	–	–
IDKFGFIVGSQGAEGALEEVPLEV [TBC1D10A]	4.32 ± 0.16	4.42 ± 0.34	–	–
IDSRARRNLGSINTELQDVQRIMV [SEC22B]	2.8 ± 0.28	2.87 ± 0.29	–	–
IEKYLRRQLTKPRPVILDPADPTG [OAS1]	3.09 ± 0.2	3.25 ± 0.24	–	–
IERLRSLSPKIMQEAFLVQEVVEL [TBC1D10A]	2.08 ± 0.36	2.09 ± 0.29	–	–
IETIKIIETEDQIDKKPVSEKTDE [MIA2]	5.02 ± 0.39	4.7 ± 0.94	–	–
IFDDNFIEERKQGLEQFINKVAGH [SNX3]	3.03 ± 0.39	3.32 ± 0.44	–	–
IGDTSVSYKYTSRYVLKAGQTVTI [LMNB1]	2.49 ± 0.73	2.29 ± 0.5	–	–
IGEGMTKYDYLMTLHGVVNESTVC [TENT5D]	2.53 ± 0.19	2.33 ± 0.19	–	–
IGGAAPSLGALDLLGPATGCLLDD [SERTAD1]	4.28 ± 0.19	4.17 ± 0.2	–	–
IIPRTVIDGLDLLKKEHPGARDGI [SMG5]	3.2 ± 0.31	3.39 ± 0.23	–	–
IIPTPDEEEKILRVKLEEDPDGEE [ZNF24]	5.44 ± 0.4	5.52 ± 0.57	–	–
IITQLEDSRRVTKENSHQVKEELS [TRIM63]	4.28 ± 0.35	4.39 ± 0.26	–	–
IKTTLRELLVYIVFLVDICLLTYG [PKD2L1]	2.98 ± 0.45	2.93 ± 0.53	–	–
ILEHAHRGEQTTSQVSWEQDLKLF [FCHSD1]	3.43 ± 0.44	3.53 ± 0.68	–	–
ILHMNGSQSSTYRGTYEQDGRFEK [ZNF396]	2.86 ± 0.41	3.36 ± 0.14	–	–
ILRKLPQQREKLSLIRKHAQTFIA [CCND2]	2.3 ± 0.14	2.42 ± 0.41	–	–
INRVSTCYSEEITVCGDLHGQLDD [PPEF2]	4.24 ± 0.33	3.96 ± 0.27	–	–
INVSKGINHLLKSPFSVHPKTGRI [PRIM1]	2.62 ± 0.5	2.65 ± 0.37	–	–
IRCRHPPPGSHLLYAKMIQKLADL [VDR]	2.37 ± 0.33	2.23 ± 0.13	–	–
